Measurements published in US20200263158.

Experiments:
[1] = tested on: blue casein (zymogram gel substrate)
[2] = molecular target: T1, tau FRET peptide OP-002, MCA-GGQVEVKSE{Lys(DNP)}
T1 chain: GGQVEVKSE

[3] = molecular target: T2, tau 4R2N peptide (amino acids 335-353)
T2 chain: GQVEVKSEKLDFKDRVQSK

recombinant human tau 4R2N (full-length tau protein)
zymogram, clearing of blue casein [1]: tau had the ability to cut the casein protein substrate in the zymogram | autoproteolysis, N-terminal Edman sequencing of fragment F3: The N-terminal sequence of fragment F3 was determined to be SEKLDF corresponding to amino acids 341-346 of Tau 4R2N | autoproteolysis, N-terminal Edman sequencing of fragments 1-4: The N-terminal sequence of the four fragments was the same: SKDGTG

B1: Tau 4R2N 260-340 (TP-81) (protein)
chain: MIGSTENLKHQPGGGKVQIINKKLDLSNVQSKCGSKDNIKHVPGGGSVQIVYKPVDLSKVTSKCGSLGNIHHKPGGGQVEVK
fluorescence of FRET peptide, plate reader [2]: Tau 4R2N 260-340 cuts tau FRET peptide

B2: TP-99 (Tau 4R2N 241-340) (protein)
chain: MRLQTAPVPMPDLKNVKSKIGSTENLKHQPGGGKVQIINKKLDLSNVQSKCGSKDNIKHVPGGGSVQIVYKPVDLSKVTSKCGSLGNIHHKPGGGQVEVK
cleavage of peptide substrate, reverse-phase HPLC [3]: intact peptide which is greatly diminished in the upper trace and replaced with two smaller peaks F1 and F2 that represent fragments generated by TP-99

B3: TP-210 (Tau 4R2N 131-340) (protein)
chain: MSKDGTGSDDKKAKGADGKTKIATPRGAAPPGQKGQANATRIPAKTPPAPKTPPSSGEPPKSGDRSGYSSPGSPGTPGSRSRTPSLPTPPTREPKKVAVVRTPPKSPSSAKSRLQTAPVPMPDLKNVKSKIGSTENLKHQPGGGKVQIINKKLDLSNVQSKCGSKDNIKHVPGGGSVQIVYKPVDLSKVTSKCGSLGNIHHKPGGGQVEVK
cleavage of peptide substrate, reverse-phase HPLC [3]: intact peptide was greatly diminished in the upper trace and replaced with two smaller peaks F1 and F2 that represent fragments generated by TP-210
